Like-named read-outs stand apart in the source and are kept apart here.
Legend:
EPCs [1] = experiment: Circulating CFU-EPC in blood; assay type: in vivo, mice; conditions: FIG. 20c
[2] = tested on: haematopoietic progenitor cells (HPC); experiment: Example 1: HPC mobilisation, hind limb bone marrow perfusion and circulating blood, CFU-HPC assay; assay type: in vivo, mice
Experimental: Assay was performed in duplicate Mobilised cells were maintained in semi-solid methylcellulose cultures for 11 days before quantification of the number of CFU-HPCs.

SPCs [3] = experiment: In situ perfusion of mouse hind limb, CFU-SPC in perfusate; assay type: in vivo, mice; conditions: for SPC mobilization from the bone marrow: FIG. 21d
Experimental: a, overview of procedures set up for identifying the direct mobilization of progenitor cells from the femoral bone marrow. […] 24 hours after the last injection, mice underwent perfusion of the right hind limb. CXCR4 antagonist (AMD3100 0.1 mM, closed bars) or vehicle (PBS, open bars) were then infused directly into the femoral artery for 10 minutes. The hind limb was then perfused for a further 50 minutes to allow collection of b, CFU-HPC; c, CFU-EPC; or d, CFU-SPC; via the femoral vein. CFU-HPC, CFU-EPC, and CFU-SPC are shown as total number of colonies collected in the perfusate. n=5-8 mice per group. Data: means±s.e.m. *: P<0.05, **: P<0.01, ***: P<0.001 between selected groups.
(§4) 24 hours after the last injection, mice were administered a CXCR4 antagonist (AMD3100, 5 mg/kg i.p), KC (30 μg/kg i.v.) or vehicle and blood was collected via cardiac puncture 60 minutes later for enumeration of circulating leukocyte, HPC, EPC, and stromal progenitor cell levels.
(§5) On day 5 following pre-treatment of growth factors, mice were anaesthetized and the femoral artery and vein exposed. The hind limb was isolated by occlusion of the external iliac artery, superficial epigastric and muscular branch. Polyethylene cannulae (Portex, London, UK) were immediately inserted into the femoral artery and vein as previously described (Martin et al., 2003; 2006; Wengner et al., 2008). Perfusion buffer was infused via the arterial cannula and removed from the venous cannula using a Minipuls peristaltic pump (Anachem, Luton, UK). The hind limb was perfused for an initial 2 minutes to remove remaining blood from the vasculature and then perfused for a further 60 min with vehicle alone or the CXCR4 antagonist (AMD3100, 0.1 mM), infused over the first 10 minutes using an infusion/withdrawal pump (Harvard Instruments, U.K.).
(§6) The perfusate was centrifuged and re-suspended in DMEM+20% FBS. In some experiments citrated blood was obtained via cardiac bleed and lysed for red blood cells. Bone marrow and perfusate cytospins, and blood smears were stained using DiffQuik for the enumeration of mononuclear cells, eosinophils, and neutrophils. Bone marrow, perfusate and lysed blood were then used for assays outlined below to enumerate HPCs (CFU-HPC), EPCs (CFU-EPC), SPCs (CFU-F).
(§7) 5×10^5 cells were added to Mesencult media including supplements (Stemcell Technologies). Dishes were incubated for 7 days before media was changed, and then incubated for a further 14 days before the enumeration of SPC colonies (CFU-F).
(§8) The total number of colony forming units mobilized was calculated according to the number of colonies per plate×by the total number of leukocytes mobilized/number of cells seeded.

[4] = tested on: endothelial progenitor cells (EPC); experiment: Example 1: EPC mobilisation, hind limb bone marrow perfusion and circulating blood, CFU-EPC assay; conditions: for EPC mobilization: perfusate and blood
Experimental: 24 hours after the last injection, mice were administered a CXCR4 antagonist (AMD3100, 5 mg/kg i.p), or vehicle and blood was collected via cardiac puncture 1 hour later for enumeration of circulating leukocyte, HPC, EPC and MSC levels.
On day 5, mice were anaesthetized with urethane (25% 0.2 ml i.p.) and the femoral artery and vein exposed. The hind limb was isolated by occlusion of the external iliac artery, superficial epigastric and muscular branch with 5/0 braided silk suture. Polyethylene cannulae (0.61 mm OD, Portex, London, UK) were immediately inserted into the femoral artery and vein and tied in place with 5/0 braided silk suture. Perfusion buffer (modified Krebs-Ringer bicarbonate buffer) at 37° C. was infused (0.15 ml/min) via the arterial cannula and removed from the venous cannula using a Minipuls peristaltic pump (Anachem, Luton, UK). The hind limb was perfused for an initial 10 minutes to remove remaining blood from the vasculature and then perfused for a further 60 min with vehicle alone or AMD3100, a CXCR4 antagonist (0.1 mM, Sigma UK) infused over the first 10 minutes using an infusion/withdrawal pump (Harvard Instruments, U.K.).
The perfusate was collected and centrifuged and the cell pellet re-suspended in Dulbecco's modified eagles medium (DMEM) with 20% fetal bovine serum (FBS). A total cell count was performed before the perfusate was lysed for red blood cells, re-suspended again in DMEM (20% FBS) and used for assays outlined below to enumerate haematopoietic progenitor cells (CFU-HPC), endothelial progenitor cells (CFU-EPC), and leukocyte populations.
In some experiments blood was taken to enumerate HPCs, EPCs and leukocytes. A total cell count was performed on citrated blood before being lysed for red blood cells and re-suspended in DMEM (20% FBS).
Assay was performed in duplicate. Dishes were incubated for 7 days before media was changed, and then incubated for a further 14 days before the enumeration of late outgrowth endothelial progenitor cells. Early outgrowth endothelial progenitor cells were enumerated on day 5.
In each of the above assays, the total number of colony forming units mobilised is calculated according to the number of colonies per plate×by the total number of leukocytes mobilized/number of cells seeded.
Mice were anaesthetised and the femoral artery and vein was cannulated such that the femoral bone marrow could be perfused (Martin et al, (2006) Br. J. Haem. 134: 326-329). […]
Mice were injected i.p. with the CXCR4 antagonist, AMD3100, (or vehicle control) and 1 h later the mice were killed. Blood was collected by cardiac puncture and stem cell numbers in the blood were determined. […]

HPCs [5] = experiment: In situ perfusion of mouse hind limb, CFU-HPC in perfusate; conditions: for HPC mobilization from the bone marrow: FIG. 21b
Experimental: 24 hours after the last injection, mice underwent perfusion of the right hind limb. […] The hind limb was then perfused for a further 50 minutes to allow collection of b, CFU-HPC; c, CFU-EPC; or d, CFU-SPC; via the femoral vein. CFU-HPC, CFU-EPC, and CFU-SPC are shown as total number of colonies collected in the perfusate. n=5-8 mice per group. Data: means±s.e.m. *: P<0.05, **: P<0.01, ***: P<0.001 between selected groups.
Female BALB/c mice were purchased from Harlan (Oxford, United Kingdom).
as §5
The perfusate was centrifuged and re-suspended in DMEM+20% FBS. […] Bone marrow, perfusate and lysed blood were then used for assays outlined below to enumerate HPCs (CFU-HPC), EPCs (CFU-EPC), SPCs (CFU-F).
5×10^4 cells were added to Methocult medium (Stem cell technologies) supplemented with specific cytokines and growth factors to enable formation of CFU-HPC. Mobilized cells were incubated for 11 days before quantification. Further characteristics of CFU-HPC colonies were obtained on day 12, namely the mean number of cells in each colony, and the mean colony area. The mean colony area (mm^2) was determined by image analysis using Scion Image analysis program (NIH). The cell number was determined by diluting colonies grown in Methocult into DMEM (to disperse the methylcellulose) and aspirating the colonies into a single cell suspension before obtaining a cell count.
as §8

HPCs [6] = experiment: Circulating CFU-HPC in blood; conditions: FIG. 20b
Experimental: a, Experimental protocol. […] 24 hours after the last injection, mice were administered a CXCR4 antagonist (AMD3100 5 mg/kg i.p, closed bars) or vehicle (PBS, open bars). 60 minutes later, blood was taken for analysis of circulating: b, CFU-HPC; c, CFU-EPC; and d, CFU-SPC. CFU-HPC, CFU-EPC, and CFU-SPC are shown as number of colonies per ml blood. n=5-8 mice per group. Data: means±s.e.m. *: P<0.05, **: P<0.01, ***: P<0.001 between selected groups.
as §4
In some experiments citrated blood was obtained via cardiac bleed and lysed for red blood cells. […] Bone marrow, perfusate and lysed blood were then used for assays outlined below to enumerate HPCs (CFU-HPC), EPCs (CFU-EPC), SPCs (CFU-F).
5×10^4 cells were added to Methocult medium (Stem cell technologies) supplemented with specific cytokines and growth factors to enable formation of CFU-HPC. Mobilized cells were incubated for 11 days before quantification.
as §8

[7] = tested on: mesenchymal stem cells (MSC); experiment: Example 1: MSC mobilisation, hind limb bone marrow perfusion and circulating blood, CFU-MSC assay; assay type: in vivo, mice; conditions: perfusate and blood, FIGS. 9-12
Experimental: 4×10^5 cells were added to 3 ml Mesencult media including supplements (05501 and 05502 Stemcell Technologies). Assay was performed in duplicate.

HPCs [8] = conditions: cited from earlier work
SPCs [9] = experiment: Circulating CFU-SPC (CFU-F) in blood; conditions: agent alone (AMD3100 5 mg/kg i.p., blood at 60 min; G-CSF once daily for 4 days), FIG. 20d
Experimental: 24 hours after the last injection, mice were administered a CXCR4 antagonist (AMD3100 5 mg/kg i.p, closed bars) or vehicle (PBS, open bars). 60 minutes later, blood was taken for analysis of circulating: b, CFU-HPC; c, CFU-EPC; and d, CFU-SPC. CFU-HPC, CFU-EPC, and CFU-SPC are shown as number of colonies per ml blood. n=5-8 mice per group. Data: means±s.e.m. *: P<0.05, **: P<0.01, ***: P<0.001 between selected groups.
(§9) Female BALB/c mice were purchased from Harlan (Oxford, United Kingdom). […] 24 hours after the last injection, mice were administered a CXCR4 antagonist (AMD3100, 5 mg/kg i.p), KC (30 μg/kg i.v.) or vehicle and blood was collected via cardiac puncture 60 minutes later for enumeration of circulating leukocyte, HPC, EPC, and stromal progenitor cell levels.
The perfusate was centrifuged and re-suspended in DMEM+20% FBS. In some experiments citrated blood was obtained via cardiac bleed and lysed for red blood cells. Bone marrow and perfusate cytospins, and blood smears were stained using DiffQuik for the enumeration of mononuclear cells, eosinophils, and neutrophils. […]
The total number of colony forming units mobilized was calculated according to the number of colonies per plate×by the total number of leukocytes mobilized/number of cells seeded. […]

EPCs [10] = experiment: In situ perfusion of mouse hind limb, CFU-EPC in perfusate; assay type: in vivo, mice; conditions: for EPC mobilization from the bone marrow: agent alone (CXCR4 antagonist 0.1 mM infused 10 min; G-CSF or VEGF pre-treatment 4 days), FIG. 21c
EPCs [11] = experiment: CFU-EPC bone marrow frequency; assay type: in vivo, mice; conditions: treated over 4 days, compared to controls, FIG. 22b
[12] = Total number of cells in the femurs; assay type: in vivo; conditions: treated over 4 days; not significantly different compared to control mice
Experimental: (§10) 24 hours after the last injection, bone marrow was aspirated for the enumeration of a, CFU-HPC bone marrow frequency; b, CFU-EPC bone marrow frequency; and c, CFU-SPC bone marrow frequency.
as §4, §6

CXCR4 = experiment: Flow cytometry of CXCR4 expression on bone marrow HPCs and EPCs; assay type: in vivo, mice; conditions: treated 4 days
Experimental: (§1) Bone marrow was aspirated on day 5 and harvested cells were used to determine a, SDF-1α levels in bone marrow supernatant as determined by ELISA; b, % of bone marrow Lin^− Sca-1^+ cells expressing CXCR4; and c, % of bone marrow CD34^+ VEGFR2^+ cells expressing CXCR4. Harvested cells were also utilized in the following chemotaxis assays: d, number of HPCs; and e, EPCs undergoing chemotaxis towards 30 nM SDF-1α. Cells taken from bone marrow of mice treated with G-CSF (closed bars) or vehicle (PBS, open bars). f, number of HPCs; and g, EPCs undergoing chemotaxis towards 30 nM SDF-1α.
(§2) For flow cytometric analysis, cells were re-suspended in FACS buffer. To identify neutrophils in the bone marrow, surface expression of the granulocyte marker Ly-6G/Ly6C (Gr-1) was determined. Neutrophils were identified as Gr-1^high positive cells with a characteristic high side scatter profile. HPCs residing in the BM were selected as being negative for lineage (Lin^−) markers: CD3e, CD11b, CD45R, Ly-76, and Gr-1 and positive for Sca-1 (Lin^− Sca-1^+ cells) (Gerber et al., 2002; Uchida, et al., 1997). EPCs residing in the BM were selected as being positive for both CD34 and VEGFR2 (CD34^+ VEGFR2^+ cells) (Asahara et al., 1997; Yoon et al., 2005). Furthermore, neutrophils were stained for the surface expression of CXCR2, whilst Lin^− Sca-1^+ cells and CD34^+ VEGFR2^+ cells were stained for the cell surface expression of CXCR4. Samples were then washed and then quantified on a FACSAria cell sorter (BD Biosciences, Oxford, United Kingdom) and analysed using FACSDiva software.

CD34^+ VEGFR2^+ EPCs = experiment: PI staining, cell cycle status of CD34+ VEGFR2+ EPCs; assay type: in vivo, mice; conditions: treated 4 days, FIG. 25d
Experimental: as §2, with “Furthermore, neutrophils were stained for the surface expression of CXCR2, whilst Lin^− Sca-1^+ cells and CD34^+ VEGFR2^+ cells were stained for the cell surface expression of CXCR4.” left out
(§3) Lin^− Sca-1^+ cells and CD34^+ VEGFR2^+ cells were analysed to determine their cell cycling status using a propidium iodide (PI) stain. […] A dotplot of PI-Width against PI-Area was recorded. Aggregates of cells were detected as cells having a larger PI-W profile and were not included in the gate. […] To calculate the percentage of cells undergoing active cell cycling, a marker was set to exclude the G0/G1 peak and the percentage of cells in S/G2/M was calculated.

HPCs and MSCs = conditions: Ripa et al. (2007) Circulation 116; cited from earlier work
SPCs [13] = experiment: CFU-SPC bone marrow frequency; assay type: in vivo, mice; conditions: treated over 4 days, compared to controls, FIG. 22c
Experimental: as §10, §9, §6, §7

neutrophils = experiment: Leukocyte counts of bone marrow; assay type: in vivo, mice; conditions: treated 4 days, compared to controls, FIG. 24f
Experimental: 24 hours later these mice underwent perfusion of the right hind limb. CXCR4 antagonist (AMD3100 0.1 mM, closed bars) or vehicle (PBS, open bars) were then infused directly into the femoral artery for 10 minutes. The hind limb was then perfused for a further 50 minutes to allow collection of a, neutrophils via the femoral vein. […] The hind limb was again perfused for a further 50 minutes to allow b, collection of neutrophils.
The perfusate was centrifuged and re-suspended in DMEM+20% FBS. […] Bone marrow and perfusate cytospins, and blood smears were stained using DiffQuik for the enumeration of mononuclear cells, eosinophils, and neutrophils.

SDF-1α = SDF-1α ELISA on bone marrow supernatants; assay type: in vivo, mice; conditions: treated once daily for 4 days, FIG. 23a
Experimental: as §1
Supernatant from bone marrow aspirates was analyzed for SDF-1α content as per the recommended protocol for the capture and detection antibody (MAB350 and BAF310 respectively. RnD systems).

HPCs [14] = experiment: In vitro chemotaxis of bone marrow HPCs towards SDF-1α; assay type: cell-based; conditions: bone marrow cells of mice treated 4 days; 30 nM SDF-1α, FIG. 23d, 23f
Experimental: as §1

Lin^− Sca-1^+ HPCs = experiment: PI staining, cell cycle status of Lin- Sca-1+ HPCs; assay type: in vivo, mice; conditions: treated 4 days, FIG. 25c
Experimental: as §2, with “Furthermore, neutrophils were stained for the surface expression of CXCR2, whilst Lin^− Sca-1^+ cells and CD34^+ VEGFR2^+ cells were stained for the cell surface expression of CXCR4.” left out
as §3

EPCs [15] = experiment: In vitro chemotaxis of bone marrow EPCs towards SDF-1α; assay type: cell-based; conditions: bone marrow cells of mice treated 4 days; 30 nM SDF-1α, FIG. 23e, 23g
Experimental: as §1

[16] = agent alone (AMD3100 5 mg/kg i.p., blood at 60 min; G-CSF or VEGF once daily for 4 days)
[17] = agent alone (CXCR4 antagonist 0.1 mM infused 10 min; G-CSF or VEGF pre-treatment 4 days)
[18] = agent alone (CXCR4 antagonist 0.1 mM infused 10 min; G-CSF or VEGF pre-treatment 4 days), perfusate over 1 hour
[19] = growth factor pre-treatment 4 days, then CXCR4 antagonist infused

## c1cc(CN2CCCNCCNCCCNCC2)ccc1CN1CCCNCCNCCCNCC1 [AMD3100, reference compound]
EPCs [1]; [16]
  circulating numbers of EPCs: increased circulating numbers of HPCs and EPCs
[2]; AMD3100 alone, 0.1 mM infused into hind limb, perfusate, FIG. 3
  HPCs mobilised (number): about 4000
SPCs [3]; [17]
  SPC mobilization from the bone marrow: HPCs and EPCs, but not SPCs were mobilized
[4]; AMD3100 alone, 0.1 mM infused into hind limb, perfusate, FIG. 5
  EPCs mobilised (number): ~400
[4]; agent alone, FIGS. 5 and 6
  EPC mobilization: stimulates the mobilization of EPCs
HPCs [5]; [18]
  HPC mobilization from the bone marrow: HPCs and EPCs, but not SPCs were mobilized
HPCs [6]; [16]
  circulating numbers of HPCs: increased circulating numbers of HPCs and EPCs
[7]; agent alone
  MSC mobilization: does not mobilize MSCs
HPCs [8]; AMD3100 alone, mice and humans
  circulating numbers of HPCs: stimulates a rapid rise in circulating numbers of HPCs in both mice and humans
SPCs [9]
  circulating SPCs: SPCs were not detected in the blood
EPCs [10]
  EPC mobilization from the bone marrow: HPCs and EPCs, but not SPCs were mobilized

B1: G-CSF: Granulocyte-colony stimulating factor, recombinant murine cytokine from PeproTech (protein, UniProt P09920 31-208, looked up)
Granulocyte …: VPLVTVSALPPSLPLPRSFLLKSLEQVRKIQASGSVLLEQLCATYKLCHPEELVLLGHSLGIPKASLSGCSSQALQQTQCLSQLHSGLCLYQGLLQALSGISPALAPTLDLLQLDVANFATTIWQQMENLGVAPTVQPTQSAMPAFTSAFQRRAGGVLAISYLQGFLETARLALHHLA
EPCs [11]
  frequency/number of EPCs in the bone marrow: significant reduction in the number of bone marrow EPCs
[12]
  total number of cells in the femurs: 1.41±0.28×10^7 cells/femur
EPCs [1]; growth factor pre-treatment over 4 days, then CXCR4 antagonist AMD3100 5 mg/kg i.p.
  circulating numbers of EPCs: no such synergism (or even additive effect) was apparent for EPC mobilization
CXCR4; CD34+ VEGFR2+ bone marrow cells, FIG. 23c
  CXCR4 expression on EPCs: the expression of CXCR4 on EPCs was unchanged
CXCR4; Lin- Sca-1+ bone marrow cells, FIG. 23b
  CXCR4 expression on HPCs: significant reduction
[2]; G-CSF or VEGF 2.5 μg on 4 consecutive days, then AMD3100 (0.1 mM infusion or 5 mg/kg i.p.), perfusate and blood, FIGS. 1-4
  HPC mobilization: acts synergistically with AMD3100 to mobilize HPCs
CD34^+ VEGFR2^+ EPCs
  percentage of CD34+ VEGFR2+ EPCs in S/G2/M phase of the cell-cycle: does not stimulate entry
SPCs [3]; [17]
  SPC mobilization from the bone marrow: did not lead to the mobilization of SPCs
SPCs [3]; growth factor (50 nM) infused acutely, alone or in combination with CXCR4 antagonist, FIG. 31c
  SPC mobilization, acute administration: neither growth factor, when administered acutely or in combination with the CXCR4 antagonist led to mobilization of SPCs
SPCs [3]; [19]
  SPC mobilization from the bone marrow: no SPCs were mobilized
[4]; G-CSF or VEGF 2.5 μg on 4 consecutive days, then AMD3100, FIGS. 5-8
  EPC mobilization: not enhanced
HPCs [5]; [18]
  HPC mobilization from the bone marrow: enhanced the basal rate of HPC and EPC egress from the bone marrow
HPCs [5]; growth factor (50 nM) infused into femoral artery for 10 minutes, alone, FIG. 31a
  HPC mobilization, acute administration: mobilized both HPCs and EPCs
HPCs [5]; [19]
  HPC mobilization from the bone marrow: synergistic mobilization of HPCs
HPCs [6]; [16]
  circulating numbers of HPCs: increased circulating numbers of HPCs
HPCs [6]; growth factor pre-treatment over 4 days, then CXCR4 antagonist AMD3100 5 mg/kg i.p., blood at 60 min
  circulating numbers of HPCs: synergistically enhanced circulating numbers of HPCs
HPCs and MSCs
  stem cell mobilisation: mobilises HPCs but causes a decrease in MSCs
SPCs [13]
  frequency/number of SPCs in the bone marrow: an increase in the number of SPCs
neutrophils
  numbers of neutrophils in the bone marrow: increased numbers of neutrophils in the bone marrow
SDF-1α
  SDF-1α levels in bone marrow supernatant: significant reduction in levels of SDF-1α
HPCs [14]
  HPC chemotaxis towards SDF-1α: further increased migration of HPCs and EPCs to SDF-1α
[7]; G-CSF or VEGF 2.5 μg on 4 consecutive days, then AMD3100
  MSC mobilization: does not mobilize MSCs
[7]; agent alone
  MSC mobilization: does not mobilize MSCs
HPCs [8]; chronic G-CSF treatment combined with acute treatment with AMD3100
  HPC mobilization: synergistic effect
Lin^− Sca-1^+ HPCs
  percentage of Lin- Sca-1+ HPCs in S/G2/M phase of the cell-cycle: does not stimulate entry
SPCs [9]
  circulating SPCs: no SPCs were detected
EPCs [15]
  EPC chemotaxis towards SDF-1α: further increased migration of HPCs and EPCs to SDF-1α
EPCs [10]
  EPC mobilization from the bone marrow: enhanced the basal rate of HPC and EPC egress from the bone marrow
EPCs [10]; growth factor (50 nM) infused into femoral artery for 10 minutes, alone, FIG. 31b
  EPC mobilization, acute administration: mobilized both HPCs and EPCs

— patent US8440199B2, “Methods for mobilizing mesenchymal stem cells in a patient” (Imperial Innovations Limited, priority 2007, dated 2013)
